Numbering of substitutions follows the chain as printed. Names may count otherwise.

Test [1] deals with T1, Biotinylated prolactin receptor BirATag-Ser-PRLR (1-210) (human, UniProt P16471 25-234, biotinylated (BirA tag, biotin added during expression in E. coli)).
T1 construct: range 1-210; also called BirA-Ser-PRLR (1-210); not shown: BirA tag (biotin acceptor tag)
T1 sequence: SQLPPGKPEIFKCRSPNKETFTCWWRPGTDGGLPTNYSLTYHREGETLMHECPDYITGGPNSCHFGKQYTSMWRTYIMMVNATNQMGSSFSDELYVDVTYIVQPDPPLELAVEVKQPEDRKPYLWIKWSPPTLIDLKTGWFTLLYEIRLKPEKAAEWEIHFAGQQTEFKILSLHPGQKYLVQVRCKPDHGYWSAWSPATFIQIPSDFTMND
Kind of test: SPR (Biacore); biotinylated BirATag-Ser-PRLR (1-210) amine-coupled to CM5 chip, variant injected at 3.13-50 nM; STDEV 0.56. The protocol: (§1) Biotinylated prolactin receptor BirATag-Ser-PRLR (1-210) was diluted to 20 μg/ml in 10 mM sodium acetate pH 4.0 (Biacore BR-1003-49) and immobilized on a CM5 chip (Biacore BR-1006-68) with the immobilization reagents 1-ethyl-3-(3-dimethylaminopropyl) carbodiimide hydrochloride (EDC), N-hydroxysuccinimide (NHS) and 1.0 M ethanolamine-HCl pH 8.5 (Biacore BR1000-50). The immobilization level was 1500 RU. The PRL variants prepared as described in Example 5 were diluted to a series of concentrations as following: 3.13/6.25/12.5/25/50 nM and run through the PRLR immobilized chip using HBS-EP (10 mM HEPES pH 7.4; 150 mM NaCl; 3 mM EDTA; 0.005% v/v Tween-20) as the running buffer under the following conditions: […]
In general terms: In SPR one partner is held on a chip, and binding of the other changes the refractive index at the surface.

Test [2] concerns the target T1, Biotinylated prolactin receptor …. Kind of test: SPR (Biacore); biotinylated BirATag-Ser-PRLR (1-210) amine-coupled to CM5 chip, variant injected at 3.13-50 nM; STDEV 0.3606. As for the experimental part: as §1
For test [3] the target is unchanged. Description: SPR (Biacore); biotinylated BirATag-Ser-PRLR (1-210) amine-coupled to CM5 chip, variant injected at 3.13-50 nM; STDEV 0.11. The protocol:
as §1

Test [4] shares this target. Description: SPR (Biacore); biotinylated BirATag-Ser-PRLR (1-210) amine-coupled to CM5 chip, variant injected at 3.13-50 nM; STDEV 0.028. The protocol: as §1
For test [5] the target is unchanged. Kind of test: SPR (Biacore); biotinylated BirATag-Ser-PRLR (1-210) amine-coupled to CM5 chip, variant injected at 3.13-50 nM; STDEV 0.0636. As for the experimental part:
as §1

For test [6] the target is unchanged. Kind of test: SPR (Biacore); biotinylated BirATag-Ser-PRLR (1-210) amine-coupled to CM5 chip, variant injected at 3.13-50 nM; STDEV 0.2546. As for the experimental part:
as §1

For test [7] the target is unchanged. Description: SPR (Biacore); biotinylated BirATag-Ser-PRLR (1-210) amine-coupled to CM5 chip, variant injected at 3.13-50 nM; STDEV 0.51. The protocol: as §1
For test [8] the target is unchanged. Kind of test: SPR (Biacore); biotinylated BirATag-Ser-PRLR (1-210) amine-coupled to CM5 chip, variant injected at 3.13-50 nM; STDEV 0.22. As for the experimental part:
as §1

Test [9] deals with T2, ECD-PRL-R, soluble extracellular domain of the prolactin receptor, Ser-PRLR(1-210) (human, UniProt P16471 25-234).
T2 construct: range 1-210
T2 sequence: T1 sequence
Description: HX-MS, 6 uM vPRL with or without 12 uM ECD-PRL-R. The protocol:
Amide hydrogen/deuterium exchange (HX) was initiated by a 10-fold dilution of vPRL in the presence or absence of ECD-PRL-R into a deuterated buffer (i.e. 20 mM Tris, 150 mM NaCl, 99% D₂O, pH 7.4 (uncorrected value)). Non-deuterated controls were prepared by dilution into an identical protiated buffer. All HX reactions were carried out at 30° C. and contained 6 μM vPRL variant in the absence or presence of 12 μM ECD-PRL-R. At appropriate time intervals, aliquots of the HX reaction were quenched by addition of an equal volume of ice-cold quenching buffer (1.25 M Tris(2-carboxyethyl)phosphine hydrochloride, adjusted to pH 2.0 using NaOH) resulting in a final pH of 2.5 (uncorrected value). Quenched samples were immediately frozen in liquid N₂ and stored at −80° C.
The samples were run on a cooled high pressure liquid chromatography-mass spectrometry system for rapid desalting and mass analysis as described (Rand et al. J. Biol. Chem. 281, 23018 (2006)).

B1: Ser-PRL D68N, G129R (ligand)
chain: SLPICPGGAARCQVTLRDLFDRAVVLSHYIHNLSSEMFSEFDKRYTHGRGFITKAINSCHTSSLATPENKEQAQQMNQKDFLSLIVSILRSWNEPLYHLVTEVRGMQEAPEAILSKAVEIEEQTKRLLERMELIVSQVHPETKENEIYPVWSGLPSLQMADEESRLSAYYNLLHCLRRDSHKIDNYLKLLKCRIIHNNNC
The Kd is the equilibrium constant for the complex coming apart. The molecule B1 gave a Kd in test [1] of 4.9 nM. In other words, the single-digit nanomolar range.

B2: Ser-PRL N31R, G129R, K190R (ligand)
chain: B1 chain with N32R, N69D, K191R
In test [2], B2 came in with a Kd of 2.01 nM.

B3: Ser-PRL G129R, K190R (ligand)
chain: B1 chain with N69D, K191R
As to B3, binding in test [3] was put at a Kd of 5.1 nM.

B4: Ser-PRL S61A, G129R, K190R (ligand)
chain: B1 chain with S62A, N69D, K191R
The molecule B4 showed a Kd in test [4] of 2.4 nM. This lies in the single-digit nanomolar range.

B5: Ser-PRL S38I, S61A, D68N, Q73L, G129R, K190R (ligand)
chain: B1 chain with S39I, S62A, Q74L, K191R
In test [5], B5 came in with a Kd of 0.3 nM.

B6: Ser-PRL N31E, G129R, K190R (ligand)
chain: B1 chain with N32E, N69D, K191R
In test [6], B6 registered a Kd of 2.7 nM.

B7: Ser-PRL S33A, Q73L, M75T, N76S, F80L, G129R, K190R (ligand)
chain: B1 chain with S34A, N69D, Q74L, M76T, N77S, F81L, K191R
In turn, B7 registered a Kd in test [7] of 3.3 nM.

B8: Ser-PRL D68N, G129R, K190R (ligand)
chain: B1 chain with K191R
Take B8: in test [8], the affinity, expressed as Kd, was 2.8 nM.

B9: vPRL: variant of PRL with amino acid residues 1-11 deleted and the mutations Q12S and G129R (ligand)
chain: SVTLRDLFDRAVVLSHYIHNLSSEMFSEFDKRYTHGRGFITKAINSCHTSSLATPEDKEQAQQMNQKDFLSLIVSILRSWNEPLYHLVTEVRGMQEAPEAILSKAVEIEEQTKRLLERMELIVSQVHPETKENEIYPVWSGLPSLQMADEESRLSAYYNLLHCLRRDSHKIDNYLKLLKCRIIHNNNC
Consider B9, for which the binding result in test [9] was “binds”.

Source of the values: US20100249029A1 (Novo Nordisk, published 2010).
